Results on two molecules are retold here after article PMC7448383.

Common to all, as to assay: EMSA
In general terms: A gel shift assay detects complexes by their altered migration in electrophoresis.

Data set [1] has as its target G3BP1 WT (human, UniProt Q13283 1-466).
For data set [2], the target named is G3BP1 S149A (human, UniProt Q13283 1-466, S149A).
The target of data set [3] is G3BP1 dRBD (human, UniProt Q13283 1-334, del335-466).
For data set [4], the target named is G3BP1 dIDR3 (dRGG) (human, UniProt Q13283 1-410, del411-466).
Sequence of G3BP1 dIDR3 (dRGG) (Q13283 1-410, stated change not applied): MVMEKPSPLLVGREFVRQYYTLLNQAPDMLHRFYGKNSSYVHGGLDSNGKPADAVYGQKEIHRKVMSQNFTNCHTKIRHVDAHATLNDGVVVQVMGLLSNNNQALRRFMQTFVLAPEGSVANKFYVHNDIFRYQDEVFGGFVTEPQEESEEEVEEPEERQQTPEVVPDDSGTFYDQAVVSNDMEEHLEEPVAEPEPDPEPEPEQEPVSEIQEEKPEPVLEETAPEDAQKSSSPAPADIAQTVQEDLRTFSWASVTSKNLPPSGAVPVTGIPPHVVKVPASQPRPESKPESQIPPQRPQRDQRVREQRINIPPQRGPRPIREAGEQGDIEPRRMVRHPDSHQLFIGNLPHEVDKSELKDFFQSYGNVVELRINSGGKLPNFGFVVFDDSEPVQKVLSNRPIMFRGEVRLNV

Sequence of G3BP1 S149A (Q13283 whole entry S149A): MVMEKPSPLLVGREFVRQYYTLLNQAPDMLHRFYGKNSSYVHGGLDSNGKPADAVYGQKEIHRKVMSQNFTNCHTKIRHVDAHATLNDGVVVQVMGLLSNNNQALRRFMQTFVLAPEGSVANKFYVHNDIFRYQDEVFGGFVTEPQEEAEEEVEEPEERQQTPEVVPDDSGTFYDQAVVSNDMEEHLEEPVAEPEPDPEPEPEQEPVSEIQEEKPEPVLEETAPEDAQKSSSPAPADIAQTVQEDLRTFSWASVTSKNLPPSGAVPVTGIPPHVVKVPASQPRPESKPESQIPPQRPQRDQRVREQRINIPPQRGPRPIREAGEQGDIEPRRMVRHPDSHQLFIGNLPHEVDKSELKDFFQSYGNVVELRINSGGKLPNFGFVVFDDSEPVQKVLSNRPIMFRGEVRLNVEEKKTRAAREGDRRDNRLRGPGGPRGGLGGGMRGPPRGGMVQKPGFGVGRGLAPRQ
Sequence of G3BP1 dRBD (Q13283 1-334, stated change not applied): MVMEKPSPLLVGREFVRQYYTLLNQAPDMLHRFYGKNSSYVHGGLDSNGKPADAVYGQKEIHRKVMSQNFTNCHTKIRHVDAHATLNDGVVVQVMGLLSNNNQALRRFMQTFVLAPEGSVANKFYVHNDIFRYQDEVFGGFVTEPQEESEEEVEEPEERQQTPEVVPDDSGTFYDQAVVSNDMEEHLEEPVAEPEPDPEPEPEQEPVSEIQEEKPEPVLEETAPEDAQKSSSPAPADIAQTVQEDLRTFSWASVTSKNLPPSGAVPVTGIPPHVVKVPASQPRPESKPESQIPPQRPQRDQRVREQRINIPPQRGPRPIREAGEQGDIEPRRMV
Sequence of G3BP1 WT (Q13283 whole entry): as the sequence (Q13283 whole entry S149A) above, with A149S counted along it

As for AGAUUCCACCACAAAGACCC (ssRNA) [20-base RNA], the binding result in data set [1] and in data set [2] was “binds” each time.

B1: 100-base RNA (ssRNA)
RNA: AGCCUGAAUCUCAGAUUCCACCACAAAGACCUCAGCGGGAUCAAAGAGUGCGAGAACAACGAAUAAAUAUUCCUCCCCAAAGGGGACCCAGACCAAUCCG
B1: the binding result in data set [3] and in data set [4] was “no binding” in each case.
